Experimental data published in US20200282021A1.

Biological target: GLP-1 receptor expressed on the transgenic cell line GLP1R_cAMP/luc
Assay: cell-based or functional assay

- EC50, cAMP-dependent luciferase reporter in GLP-1R over-expressing cells: 6.66 pM
Substance: Dulaglutide (TRULICITY) (Fc fusion)
